The text below walks through data of US20260167699A1 (Chugai, published 2026).

Numbering of substitutions follows the chain as printed. Names may count otherwise.

For test [1], the target named is T1, FcγRIIIa(V) extracellular domain with C-terminal His tag (human, UniProt P08637 17-208).
T1 construct: extracellular domain; polymorphic form V158; also called FcγRIIIa V type
The test can be described thus: SPR (Biacore), captured antibody, FcγR analyte, 1:1 Langmuir fit. (In general: Surface plasmon resonance follows binding to a sensor surface in real time, without labels.)
Experimental: (§1) The antibody of interest was analyzed for its interaction with FcγR using a BiaCore™ T100, BiaCore™ A100, or BiaCore™ 4000 surface plasmon resonance system (GE Healthcare Japan Corp.). The running buffer used was HBS-EP+ (GE Healthcare Japan Corp.). The assay temperature was set to 25° C. The sensor chips used were: a chip prepared by immobilizing antigenic peptides onto Series S Sensor Chip CM5 (GE Healthcare Japan Corp.) by the amine coupling method; a chip prepared by immobilizing antigenic peptides biotinylated in advance onto Series S Sensor Chip SA (certified) (GE Healthcare Japan Corp.) through their interaction; a chip prepared by immobilizing protein L (ACTIGEN, BioVision, Inc.) onto Series S Sensor Chip CM5 (GE Healthcare Japan Corp.); and a chip prepared by immobilizing protein A/G (Thermo Fisher Scientific K.K.) onto Series S Sensor Chip CM5 (GE Healthcare Japan Corp.). The antibody of interest was captured onto any of these chips and allowed to interact with FcγR diluted with a running buffer. The antibody captured on the chip was washed off through the reaction of 10 mM glycine-HCl (pH 1.5) to regenerate the chip, which was repetitively used.

The target of test [2] is T2, FcγRIIIa(F) extracellular domain with C-terminal His tag (human, UniProt P08637 17-208).
T2 construct: extracellular domain; polymorphic form F158; also called FcγRIIIa F type
Described as above.
Experimental: as §1

For test [3], the target named is T3, FcγRIIIa (human, UniProt P08637 17-208).
T3 construct: extracellular domain; also called 3a
Briefly: SPR (Biacore T100), antibody captured on protein L chip, FcγRIIIa as analyte, TBS(+), 25 C, 1:1 Langmuir fit.
Experimental: Specifically, their interaction with FcγRIIIa was analyzed using BiaCore™ T100 surface plasmon resonance system (GE Healthcare Japan Corp.). The running buffer used was the TBS(+) solution used in the preceding paragraph. The assay temperature was set to 25° C. Protein L was immobilized onto Series S Sensor Chip CM4 (GE Healthcare Japan Corp.) by the amine coupling method to prepare a chip. Each antibody of interest was captured onto the protein L-immobilized chip and allowed to interact with FcγRIIIa diluted with a running buffer. The antibody captured on the chip was washed off through the reaction of 10 mM glycine-HCl (pH 1.5) to regenerate the chip, which was repetitively used.
Each antibody was evaluated for its binding activity against FcγRIIIa with binding activity against FcγRIIIa and dissociation constant for FcγRIIIa as main indexes. […] Specifically, a sensorgram obtained by assay using BiaCore™ surface plasmon resonance Evaluation Software was globally fit into the 1:1 Langmuir model to calculate an association rate constant ka (L/mol/s) and a dissociation rate constant kd (1/s). From these values, the dissociation constant KD (mol/L) was calculated.

The target in test [4] is T4, FcγRIIIa extracellular domain with C-terminal His tag (allotype not given) (human, UniProt P08637 17-208).
T4 construct: extracellular domain; also called 3a
The test can be described thus: SPR (Biacore), captured antibody, FcγRIIIa analyte, 1:1 Langmuir fit.

Test [5] concerns the target T4, FcγRIIIa extracellular domain with …. The test can be described thus: SPR; KD of GpH7-A5/GpH7-B3/GpL16-k0 for FcγRIIIa divided by KD of this antibody.
Experimental: as §1
Test [6] shares this target. Briefly: SPR; KD of GpH7-G1d/GpL16-k0 for FcγRIIIa divided by KD of this antibody.
Experimental: as §1

T3 sequence (P08637 other isoform, or with tags, fused parts or gaps): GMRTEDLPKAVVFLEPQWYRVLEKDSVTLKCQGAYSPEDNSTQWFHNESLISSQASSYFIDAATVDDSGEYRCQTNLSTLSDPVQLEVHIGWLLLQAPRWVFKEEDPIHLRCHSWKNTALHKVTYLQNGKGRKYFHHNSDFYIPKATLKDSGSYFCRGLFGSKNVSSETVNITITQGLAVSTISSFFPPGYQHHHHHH
T1 sequence (P08637 other isoform, or with tags, fused parts or gaps): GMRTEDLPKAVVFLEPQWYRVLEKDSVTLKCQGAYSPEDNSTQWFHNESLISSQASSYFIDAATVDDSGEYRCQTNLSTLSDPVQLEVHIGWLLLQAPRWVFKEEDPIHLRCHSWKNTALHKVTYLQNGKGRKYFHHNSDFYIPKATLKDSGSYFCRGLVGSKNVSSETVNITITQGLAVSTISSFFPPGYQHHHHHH

B1: H240-Kn061/H240-Hl134/L73-k0 (antibody, human IgG1, kappa)
heavy 1: QDQLVQSGAEVKKPGASVKVSCKASGFNIKDTYIQWVRQAPGQGLEWMGRIDPLRKQTKYREKFEGRVTITADTSTNTAYMELSSLRSEDTAVYYCVRSGREFDYWGQGTLVTVSSASTKGPSVFPLAPSSKSTSGGTAALGCLVKDYFPEPVTVSWNSGALTSGVHTFPAVLQSSGLYSLSSVVTVPSSSLGTQTYICNVNHKPSNTKVDKKVEPKSCDKTHTCPPCPAPEYYWGPSVFLFPPKPKDTLMISRTPEVTCVVVDVSDEDPEVKFNWYVDGVEVHNAKTKPREEQYNATYRVVSVLTVLHQDWLNGKEYKCKVSNKALPAPIEKTISKAKGQPREPQVCTLPPSRDELTKNQVSLWCLVKGFYPSDIAVEWESNGQPENNYKTTPPVLDSDGSFFLYSKLTVDKSRWQQGNVFSCSVMHEALHNHYTQKSLSLSP
heavy 2: B1 heavy 1 with C348Y, D355C, W365S, L367A, Y406V
light: DIQMTQSPSSLSASVGDRVTITCRASQDIHKYIAWYQQKPGQAPRLLIQYTSTLQPGVPSRFSGSGSGTDYTFTISSLQPEDIATYYCLQYEQLRTFGGGTKVEIKRTVAAPSVFIFPPSDEQLKSGTASVVCLLNNFYPREAKVQWKVDNALQSGNSQESVTEQDSKDSTYSLSSTLTLSKADYEKHKVYACEVTHQGLSSPVTKSFNRGEC
notes: anti-epiregulin IgG1 called homodimerized: L234Y/L235Y/G236W/H268D/S298A in both H chains; also called H240-Kn061/H240-HI134/L73-k0
For the molecule B1, the values for the equilibrium dissociation constant (Kd) in test [1] and in test [2] were 86 nM and 660 nM, respectively.

B2: H240-Kn125/H240-Hl076-ma1/L73 (antibody, human IgG1, kappa)
heavy 1: QDQLVQSGAEVKKPGASVKVSCKASGFNIKDTYIQWVRQAPGQGLEWMGRIDPLRKQTKYREKFEGRVTITADTSTNTAYMELSSLRSEDTAVYYCVRSGREFDYWGQGTLVTVSSASTKGPSVFPLAPSSKSTSGGTAALGCLVKDYFPEPVTVSWNSGALTSGVHTFPAVLQSSGLYSLSSVVTVPSSSLGTQTYICNVNHKPSNTKVDKKVEPKSCDKTHTCPPCPAPELLGGPSVFLFPPKPKDTLMISRTPEVTCVVVDVSGCRGDCLEPEVKFNWYVDGVEVHNAKTKPREEQYNSTYRVVSVLTVLHQDWLNGKEYKCKVSNDALPMPIEETISKAKGQPREPQVYTLPPSRCELTKNQVSLSCAVKGFYPSDIAVEWESNGQPENNYKTTPPVLDSDGSFFLVSKLTVDKSRWQQGNVFSCSVMHEALHNHYTQKSLSLSP
heavy 2: B1 heavy 1 with Y234Q, S238M, D269E
light: B1 light
notes: heterodimerized anti-EREG antibody with the RGD peptide inserted in a loop region of the H240-Hl076 chain; also called H240-Kn125/H240-HI076-ma1/L73
On to B2, for which the Kd in test [3] turned out to be 2.1 nM.

B3: H240-G1d-CD/H240-G1d-CD/L73 (antibody, human IgG1, kappa)
heavy: QDQLVQSGAEVKKPGASVKVSCKASGFNIKDTYIQWVRQAPGQGLEWMGRIDPLRKQTKYREKFEGRVTITADTSTNTAYMELSSLRSEDTAVYYCVRSGREFDYWGQGTLVTVSSASTKGPSVFPLAPSSKSTSGGTAALGCLVKDYFPEPVTVSWNSGALTSGVHTFPAVLQSSGLYSLSSVVTVPSSSLGTQTYICNVNHKPSNTKVDKKVEPKSCDKTHTCPPCPAPELLGGPSVFLFPPKPKDTLMISRTPEVTCVVVDVSHEDPEVKFNWYVDGVEVHNAKTKPREEQYNSTYRVVSVLTVLHQDWLNGKEYKCKVSNKALPAPIEKTISKAKGQPREPQVYTLPPSRDELTKNQVSLTCLVKGFYPSDIAVEWESGCRGDCLPENNYKTTPPVLDSDGSFFLYSKLTVDKSRWQQGNVFSCSVMHEALHNHYTQKSLSLSP
light: B1 light
notes: anti-EREG antibody with the RGD peptide inserted in the CH3 regions (control)
B3 showed a Kd in test [3] of 310 nM.

B4: H240-Kn125-CD/H240-Hl076/L73 (antibody, human IgG1, kappa)
heavy 1: QDQLVQSGAEVKKPGASVKVSCKASGFNIKDTYIQWVRQAPGQGLEWMGRIDPLRKQTKYREKFEGRVTITADTSTNTAYMELSSLRSEDTAVYYCVRSGREFDYWGQGTLVTVSSASTKGPSVFPLAPSSKSTSGGTAALGCLVKDYFPEPVTVSWNSGALTSGVHTFPAVLQSSGLYSLSSVVTVPSSSLGTQTYICNVNHKPSNTKVDKKVEPKSCDKTHTCPPCPAPELLGGPSVFLFPPKPKDTLMISRTPEVTCVVVDVSHEEPEVKFNWYVDGVEVHNAKTKPREEQYNSTYRVVSVLTVLHQDWLNGKEYKCKVSNDALPMPIEETISKAKGQPREPQVYTLPPSRCELTKNQVSLSCAVKGFYPSDIAVEWESNGQPENNYKTTPPVLDSDGSFFLVSKLTVDKSRWQQGNVFSCSVMHEALHNHYTQKSLSLSP
heavy 2: B3 heavy with L233Y, L234Q, G235W, S238M, H267D, D269E, S297A, Y348C, T365W
light: B1 light
notes: heterodimerized anti-EREG antibody with the RGD peptide inserted in a CH3 region (control); also called H240-Kn125-CD/H240-HI076/L73
Molecule B4 gave a Kd in test [3] of 0.85 nM.

B5: H240-Kn132/H240-Hl071/L73-k0 (antibody, human IgG1, kappa)
heavy 1: B4 heavy 1 with E269D, Y348C, C355D, S365W, A367L, V406Y
heavy 2: B4 heavy 1 with E269D
light: B1 light
notes: anti-epiregulin IgG1 called homodimerized: K326D/A330M/K334E in both H chains; also called H240-Kn132/H240-HI071/L73-k0
Consider B5, for which the results for the Kd in test [1] and in test [2] were 16 nM and 77 nM, respectively.

B6: GpH7-A5/GpH7-B78/GpL16-k0 (antibody, human IgG1, kappa)
heavy 1: not shown
heavy 2: QVQLVQSGAEVKKPGASVTVSCKASGYTFTDYEMHWIRQPPGEGLEWIGAIDPKTGDTAYSESFQDRVTLTADKSTSTAYMELSSLTSEDTAVYYCTRFYSYTYWGQGTLVTVSSASTKGPSVFPLAPSSKSTSGGTAALGCLVKDYFPEPVTVSWNSGALTSGVHTFPAVLQSSGLYSLSSVVTVPSSSLGTQTYICNVNHKPSNTKVDKKVEPKSCDKTHTCPPCPAPELLGGPDVFLFPPKPKDTLMISRTPEVTCVVVDVSHEDPEVKFNWYVDGVEVHNAKTKPREEQYNSTYRVVSVLTVLHQDWLNGKEYKCKVSNKALPLPEEKTISKAKGQPREPQVYTLPPSRDELTKNQVSLTCLVKGFYPSDIAVEWESNGQPENNYKTTPPVLDSDGSFFLYSKLTVDKSRWQQGNVFSCSVMHEALHNHYTQESLSLSP
light: DIVMTQSPLSLPVTPGEPASISCQASESLVHSNRNTYLHWYLQKPGQSPQLLIYKVSNRFSGVPDRFSGSGSGTDFTLKISRVEAEDVGVYYCSQNTHVPPTFGQGTKVEIERTVAAPSVFIFPPSDEQLKSGTASVVCLLNNFYPREAKVQWKVDNALQSGNSQESVTEQDSKDSTYSLSSTLTLSKADYEKHKVYACEVTHQGLSSPVTKSFNRGEC
notes: heterodimerized anti-glypican 3 IgG1; S239D/A330L/I332E in one H chain
Take B6: the Kd in test [4] was 54 nM. Also, in test [5], the “KD ratio2” value came to 30 fold. Besides, the “KD ratio1” value in test [6] amounted to 23 fold.

B7: GpH7-A5/GpH7-B3/GpL16-k0 (antibody, human IgG1, kappa)
heavy 1: not shown
heavy 2: not shown
light: B6 light
notes: also called HeCon Ab
Turning to B7, in test [4], the Kd stood at 1600 nM. The “KD ratio2” value in test [5] amounted to 1 fold. Besides, the “KD ratio1” value in test [6] was determined as 0.75 fold.

B8: GpH7-A57/GpH7-B78/GpL16-k0 (antibody, human IgG1, kappa)
heavy 1: B6 heavy 2 with D354K, H433R, E437K
heavy 2: B6 heavy 2
light: B6 light
notes: anti-glypican 3 IgG1 called homodimerized: S239D/A330L/I332E in both H chains
For B8, the affinity in test [4], expressed as Kd, was 6.2 nM. Further, the “KD ratio2” value in test [5] was determined as 263 fold. Further, the “KD ratio1” value in test [6] stood at 199 fold.

B9: GpH7-TA7/GpH7-TA45/GpL16-k0 (antibody, human IgG1, kappa)
heavy 1: B6 heavy 2 with L232Y, G234W, D237S, S296A, L328A, E330I, D354K, H433R, E437K
heavy 2: B6 heavy 2 with L232Y, G234W, D237S, S296A, L328A, E330I
light: B6 light
notes: anti-glypican 3 IgG1 called homodimerized: L234Y/G236W/S298A in both H chains
In turn, B9 showed a Kd in test [4] of 3300 nM. For the same molecule, the “KD ratio2” value in test [5] turned out to be 0.49 fold. For the same molecule, in test [6], the “KD ratio1” value was 0.37 fold.

B10: GpH7-TA7/GpH7-B78/GpL16-k0 (antibody, human IgG1, kappa)
heavy 1: B6 heavy 2 with L232Y, G234W, D237S, S296A, L328A, E330I, D354K, H433R, E437K
heavy 2: B6 heavy 2
light: B6 light
notes: heterodimerized anti-glypican 3 IgG1; L234Y/G236W/S298A in one H chain, S239D/A330L/I332E in the other
As to B10, the Kd in test [4] is 4.7 nM. The “KD ratio2” value in test [5] is 347 fold. In addition, in test [6], the “KD ratio1” value was 261 fold.

B11: GpH7-TA7/GpH7-B3/GpL16-k0 (antibody, human IgG1, kappa)
heavy 1: B6 heavy 2 with L232Y, G234W, D237S, S296A, L328A, E330I, D354K, H433R, E437K
heavy 2: not shown
light: B6 light
notes: heterodimerized anti-glypican 3 IgG1; L234Y/G236W/S298A in one H chain
B11 registered a Kd in test [4] of 320 nM. Further, the “KD ratio2” value in test [5] turned out to be 5.1 fold. The “KD ratio1” value in test [6] came to 3.8 fold.

By Kd is commonly meant the concentration at which binding is half-saturated. A high value points to lower affinity.
